Results published in article PMC12000561.

System: MUTYH WT (MBP fusion) (Homo sapiens)
Assay: EMSA
Details: EMSA: DNA mix 40 mM Tris pH 7.6, 2 mM EDTA, 200 mM NaCl (printed '200 M'), 20% glycerol, 0.2 mg/ml BSA, 2 mM DTT, 20 pM duplex, mixed 1:1 with enzyme in 20 mM …

Substance	Kd (upper limit estimate, THF (abasic analog) opposite 8-oxoguanine)	Kd (table unit header missing, 2'-fluoro-2'-deoxyadenosine opposite 8-oxoguanine)
Duplex 2 THF:OG (product analog), 30 bp	< 10 pM	
Duplex 2 fA:OG (substrate analog), 30 bp		32 pM
